# Laboratory results taken from the supplement of paper PMC9112550, “Optimization of the antimicrobial peptide Bac7 by deep mutational scanning” (BMC Biology, 2022).
# Test system: Escherichia coli TOP10
# Assay: shrunken log2 fold change of peptide-encoding DNA abundance (4.5 h post-induction vs induction); higher = less antimicrobial activity (less host growth inhibition)
# Details: time post-induction: 4.5 h; library: site-saturation at positions 5, 18, 19, 20
# 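Note: peptides expressed intracellularly from a pBAD plasmid library in pooled LB shake-flask culture, induced with 0.3% L-arabinose, DNA abundance read by NGS, three biological replicates, DESeq2 with apeglm shrinkage.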
row,Sequence,shrunken log2 fold change
1,RRIRHRPPRLPRPRPRPFQYPRP,-0.147
2,RRIRSRPPRLPRPRPRPVRTPRP,-0.0647
3,RRIRPRPPRLPRPRPRPYQYPRP,-0.292
4,RRIRNRPPRLPRPRPRPIPWPRP,-0.102
5,RRIRKRPPRLPRPRPRPRFQPRP,-0.00313
6,RRIRPRPPRLPRPRPRPYMWPRP,-0.455
7,RRIRVRPPRLPRPRPRPQKMPRP,-0.234
8,RRIRVRPPRLPRPRPRPDFFPRP,-0.0229
9,RRIRGRPPRLPRPRPRPTLMPRP,0.815
10,RRIRSRPPRLPRPRPRPLTLPRP,-0.599
11,RRIRRRPPRLPRPRPRPSPTPRP,0.598
12,RRIRKRPPRLPRPRPRPSSEPRP,0.2
13,RRIRERPPRLPRPRPRPLQWPRP,0.499
14,RRIRPRPPRLPRPRPRPYCPPRP,-0.365
15,RRIRKRPPRLPRPRPRPKEIPRP,0.00103
16,RRIRHRPPRLPRPRPRPMSFPRP,-0.089
17,RRIRTRPPRLPRPRPRPSDKPRP,-0.0752
18,RRIRYRPPRLPRPRPRPANFPRP,0.0515
19,RRIRARPPRLPRPRPRPGETPRP,0.238
20,RRIRIRPPRLPRPRPRPVMIPRP,-0.00671

row,Sequence,shrunken log2 fold change
1,RRIRERPPRLPRPRPRPPYKPRP,-0.107
2,RRIRDRPPRLPRPRPRPCTNPRP,-0.0463
3,RRIRARPPRLPRPRPRPGQYPRP,0.0253
4,RRIRIRPPRLPRPRPRPNIAPRP,-0.407
5,RRIRPRPPRLPRPRPRPPIAPRP,0.27
6,RRIRVRPPRLPRPRPRPDYQPRP,0.0174
7,RRIRIRPPRLPRPRPRPSFTPRP,-0.573
8,RRIRSRPPRLPRPRPRPFKYPRP,-0.418
9,RRIRGRPPRLPRPRPRPVHIPRP,-0.165
10,RRIRRRPPRLPRPRPRPCPEPRP,0.0178
11,RRIRKRPPRLPRPRPRPISWPRP,-0.0574
12,RRIRCRPPRLPRPRPRPVYNPRP,-0.378
13,RRIRNRPPRLPRPRPRPSTYPRP,-0.318
14,RRIRWRPPRLPRPRPRPAWFPRP,0.251
15,RRIRMRPPRLPRPRPRPVYLPRP,-0.683
16,RRIRDRPPRLPRPRPRPCLHPRP,0.0931
17,RRIRRRPPRLPRPRPRPGFPPRP,3.88
18,RRIRGRPPRLPRPRPRPQTVPRP,0.19
19,RRIRRRPPRLPRPRPRPPHVPRP,0.915
20,RRIRTRPPRLPRPRPRPQYKPRP,-1.04

row,Sequence,shrunken log2 fold change
1,RRIRWRPPRLPRPRPRPTCPPRP,0.187
2,RRIRIRPPRLPRPRPRPNWTPRP,0.117
3,RRIRARPPRLPRPRPRPYYEPRP,-1.02
4,RRIRIRPPRLPRPRPRPAAYPRP,-0.919
5,RRIRIRPPRLPRPRPRPHKMPRP,-0.237
6,RRIRIRPPRLPRPRPRPQHMPRP,-0.94
7,RRIRTRPPRLPRPRPRPEMFPRP,-0.0156
8,RRIRYRPPRLPRPRPRPDMMPRP,-0.417
9,RRIRARPPRLPRPRPRPMIVPRP,-0.262
10,RRIRWRPPRLPRPRPRPDISPRP,-0.135
11,RRIRARPPRLPRPRPRPLKNPRP,-0.127
12,RRIRHRPPRLPRPRPRPFAKPRP,-0.362
13,RRIRARPPRLPRPRPRPYSGPRP,-0.0581
14,RRIRDRPPRLPRPRPRPCPGPRP,-0.0964
15,RRIRMRPPRLPRPRPRPILIPRP,0.0587
16,RRIRDRPPRLPRPRPRPDDPPRP,-0.00152
17,RRIRMRPPRLPRPRPRPENDPRP,3.77
18,RRIRFRPPRLPRPRPRPKPIPRP,0.0634
19,RRIRWRPPRLPRPRPRPMDQPRP,-0.131
20,RRIRARPPRLPRPRPRPMGKPRP,0.472
